Assay [1] deals with T1, Human Id1: Histidine (human, UniProt P41134 1-155, limits assumed).
T1 construct: Fusion protein made in E. coli from vector pGW07; also called h-Id1: his; not shown: His tag
T1 sequence (looked up): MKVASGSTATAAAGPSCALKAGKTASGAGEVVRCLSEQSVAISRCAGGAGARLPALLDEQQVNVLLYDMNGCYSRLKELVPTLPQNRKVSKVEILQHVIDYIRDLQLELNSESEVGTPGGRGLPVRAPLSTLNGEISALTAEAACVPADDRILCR
Put plainly: ELISA, Ab 0.100 µg/ml. How it is done: (§1) The rabbit monoclonal anti-human Id3 (clone #3-3) and the rabbit monoclonal anti-mouse/human Id3 (clones #6-1, 16-1, 17-3, and 42-1) produced in Example 6 were tested reactivity against the following antigens: mouse Id1:His, human Id1:His, mouse Id2:His, human Id2:His, mouse Id3:His, human Id3:His, mouse Id4:His, human Id4:His and GST.
(§2) 1. Microtiter wells (prepared in accordance with Example 6) were coated (0.1 μg/well) with mouse Id1:His, human Id1:His, human Id2:His, human Id3:His, and 1.0 μg/well with GST. [0155] 2. Antibody Diluent: 0.25% (w/v) BSA in 0.015M KPO₄ Buffer, 0.85% (w/v) NaCl, 0.1% (w/v) NaN₃, pH=7.40 [0156] 3. Rabbit monoclonal anti-human Id3 (clone #3-3) prepared in Example 7 was diluted to […] with the antibody diluent. […] 4. Rabbit monoclonal anti-mouse/human Id3 (clones #6-1, 16-1, 17-3, 42-1) prepared in Example 7 was diluted to 0.005, 0.010, 0.025, 0.05, 0.10, 0.25, and 0.50 μg/ml with the antibody diluent. […] 5. Conjugate Diluent: 50% (v/v) which consists of an aqueous solution containing Fetal Bovine Serum in 0.05 M Tris, 1% (v/v) Proclin-300, pH 7.6. [0159] 6. Conjugate: Goat anti-rabbit IgG (H+L)-HRP conjugate. [0160] 7. TMB reagent. […] 8. Stop solution (1 N HCI). Method
(§3) 1. Dispense 100 μL of antibody diluent, diluted rabbit monoclonal human Id3, and mouse/human Id3 hybridoma supernatants into appropriate wells. […] 2. Incubate at room temperature with mechanical shaking at 750 rpm for 90 minutes. [0165] 3. Remove the incubation mixture by flicking plate content into an appropriate waste container followed by rinsing the wells 5 times with distilled water. [0166] 4. Strike the wells sharply onto absorbent paper or paper towels to remove all residual water droplets. [0167] 5. Dispense 100 μL of 1:50,000 Goat Anti-Rabbit IgG-HRP Conjugate Reagent into each well. Gently mix for 5 seconds. [0168] 6. Incubate at room temperature with mechanical shaking at 750 rpm for 90 minutes. [0169] 7. Repeat procedures 3 and 4. [0170] 8. Dispense 100 μL of TMB Reagent into each well. Gently mix for 5 seconds. [0171] 9. Incubate at room temperature with mechanical shaking at 750 rpm for 20 minutes. […] 10.
(In general: In an ELISA, binding on a coated surface is turned into a signal by an enzyme label.)

Assay [2] has as its target T2, Mouse Id1: Histidine (mouse, UniProt P20067-2 1-148, limits assumed).
T2 construct: Fusion protein made in E. coli from vector pGW07; also called m-Id1-His; not shown: His tag
T2 sequence (looked up): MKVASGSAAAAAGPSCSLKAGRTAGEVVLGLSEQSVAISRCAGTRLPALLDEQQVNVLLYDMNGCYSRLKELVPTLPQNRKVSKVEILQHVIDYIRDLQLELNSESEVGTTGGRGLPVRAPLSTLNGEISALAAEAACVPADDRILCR
Put plainly: ELISA, Ab 0.100 µg/ml. As for the experimental part: as §1, §2, §3

Assay [3] deals with T3, glutathione S-transferase (GST) (UniProt P08515 1-218 = GST).
T3 construct: also called carrier protein GST
The assay is described as follows: ELISA, Ab 0.050 µg/ml.

In assay [4] the target is T1, Human Id1: Histidine. Put plainly: ELISA, Ab 0.000 µg/ml (blank). As for the experimental part:
as §1, §2, §3

Another assay has as its target T4, Mouse Id2: Histidine (mouse, UniProt P41136 1-134, limits assumed).
T4 construct: Fusion protein made in E. coli from vector pGW07; also called m-Id2: His; not shown: His tag
T4 sequence (looked up): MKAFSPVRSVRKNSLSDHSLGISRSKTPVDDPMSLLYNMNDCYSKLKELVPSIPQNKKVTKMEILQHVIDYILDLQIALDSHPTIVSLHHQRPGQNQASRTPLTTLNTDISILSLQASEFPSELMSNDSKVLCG
Put plainly: ELISA, Ab 0.000 µg/ml (blank). How it is done:
as §1, §2, §3

A further assay addresses T5, Human Id2: Histidine (human, UniProt Q02363 1-134, limits assumed).
T5 construct: Fusion protein made in E. coli from vector pGW07; also called h-Id2: His; not shown: His tag
T5 sequence (looked up): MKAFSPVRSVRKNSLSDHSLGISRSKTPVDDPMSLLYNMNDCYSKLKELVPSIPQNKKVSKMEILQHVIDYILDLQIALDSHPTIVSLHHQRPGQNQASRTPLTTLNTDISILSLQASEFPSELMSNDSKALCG
Put plainly: ELISA, Ab 0.000 µg/ml (blank). As for the experimental part: as §1, §2, §3

Assay [5] deals with T3, glutathione S-transferase (GST). Put plainly: ELISA, Ab 0.000 µg/ml (blank). As for the experimental part:
as §1, §2, §3

Assay [6] addresses T2, Mouse Id1: Histidine. The assay is described as follows: ELISA, Ab 0.000 µg/ml (blank). As for the experimental part:
as §1, §2, §3

A further assay addresses T6, Mouse Id3: Histidine (mouse, UniProt P41133 1-119).
T6 construct: Fusion protein made in E. coli from vector pGW07; also called m-Id3: His; Mouse Id3 (coated wells); not shown: His tag
T6 sequence: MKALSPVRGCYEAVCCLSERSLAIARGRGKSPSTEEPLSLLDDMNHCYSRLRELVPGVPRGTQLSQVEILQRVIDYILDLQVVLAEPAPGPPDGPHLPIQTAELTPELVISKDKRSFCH
Put plainly: ELISA, Ab 0.000 µg/ml (blank). As for the experimental part:
as §1, §2, §3

A further assay addresses T7, Human Id3: Histidine (human, UniProt Q02535 1-119 at identity 1.00)).
T7 construct: Fusion protein made in E. coli from vector pGW07; also called h-Id3: His; Human Id3 (coated wells); not shown: His tag
T7 chain: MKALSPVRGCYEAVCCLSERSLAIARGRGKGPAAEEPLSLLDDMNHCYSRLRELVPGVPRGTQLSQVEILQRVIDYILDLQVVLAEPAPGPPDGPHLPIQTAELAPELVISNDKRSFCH
The assay is described as follows: ELISA, Ab 0.000 µg/ml (blank). As for the experimental part:
as §1, §2, §3

T3 sequence (P08515 whole entry): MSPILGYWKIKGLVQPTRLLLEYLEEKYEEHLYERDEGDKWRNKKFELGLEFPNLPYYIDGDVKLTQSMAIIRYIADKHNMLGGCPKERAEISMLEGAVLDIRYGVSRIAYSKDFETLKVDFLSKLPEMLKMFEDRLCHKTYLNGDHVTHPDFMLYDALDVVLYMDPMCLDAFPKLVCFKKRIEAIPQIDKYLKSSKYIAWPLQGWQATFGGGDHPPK

B1: rabbit monoclonal anti-human Id3, clone #BCH-4/#3-3 (antibody, V domains shown)
VH: QSVEESGGRLVTPGTPLTLTCTVSGIDLSSYAMSWVRQAPGKGLEWIGVIFPSNNVYYASWAKGRFTISKTSTTVDLKITSPTTEDTATYFCASMGAFDSWGPGTLVTVSS
VL: QVLTQTPSPVSAAVGGTVTINCQASQSIYNDNDLAWFQQKPGQPPKLLIYDASTLTSGVPSRFKGSGSGTQFTLTISDLDCDDAATYYCAARYSGNIYGFGGGTEVVVK
notes: Rabbit IgG from a rabbit hybridoma; also called h Id3 MoAb 3-3
Regarding B1, the A450 with Human Id1: Histidine [1] was 0.047 A450; with Mouse Id1: Histidine [2], 0.047 A450; in assay [3] it was 0.048 A450; with Human Id1: Histidine [4], 0.046 A450; with Mouse Id2: Histidine, 0.048 A450; with Human Id2: Histidine, 0.043 A450. Also, the A450 was 0.044 A450 in assay [5] and 0.047 A450 with Mouse Id1: Histidine [6].

B2: rabbit monoclonal anti-mouse/human Id3, clone #BCH-4/#16-1 (antibody, V domains shown)
VH: QSVEESGGRLVTPGTPLTLTCTASGFSLSSYYIHWVRQAPGKALEWIGYISDGGTTYYASWAKGRFTISKTSSTTVDLKMTSLTTEDTATYFCARQGFNIWGPGTLVTVSL
VL: AVLTQTPSPVSAAVGGTVTISCQSSQSVYNNNWLSWFQQKSGQPPKLLIYETSKLESGVPSRFKGSGSGTQFTLTIIDVQCDDAATYYCLGGYWTTSDNNIFGGGTEVVVK
notes: Rabbit IgG from a rabbit hybridoma; also called m/h Id3 MoAb 16-1
Regarding B2, the A450 is 0.047 A450 with Human Id1: Histidine [1]; 0.047 A450 with Mouse Id1: Histidine [2]; 0.046 A450 in [3]; 0.043 A450 with Human Id1: Histidine [4]; 0.046 A450 in the assay with Mouse Id2: Histidine; 0.049 A450 with Human Id2: Histidine. Besides, the A450 with Mouse Id3: Histidine was 0.044 A450; in the assay with Human Id3: Histidine it was 0.046 A450; in assay [5], 0.048 A450; in the assay with Mouse Id1: Histidine [6], 0.044 A450.

B3: rabbit monoclonal anti-mouse/human Id3, clone #BCH-4/#6-1 (antibody, V domains shown)
VH: QSVEESGGRLVTPGTPLTLTCTASGFSLSNVYIHWVRQAPGKGLEWIGYISDGDTARYATWAKGRFTISKTSSTTVNLKMTSLTTEDTATYFCARQGFNIWGPGTLVTVSL
VL: AVLTQTPSPVSAAVGGTVSISCQSSQSVWNNNWLSWFQQKPGQPPKLLIYETSKLESGVPSRFKGSGSGTQFTLTISDVQCDDAATYYCLGGYWTTSDNNVFGGGTEVVVK
notes: Rabbit IgG from a rabbit hybridoma; also called m/h Id3 MoAb 6-1
As to B3, the A450 with Human Id1: Histidine [1] was found to be 0.049 A450; with Mouse Id1: Histidine [2], 0.049 A450; in assay [3], 0.047 A450; with Human Id1: Histidine [4], 0.045 A450; with Mouse Id2: Histidine, 0.044 A450; with Human Id2: Histidine, 0.045 A450. Besides, the A450 is 0.047 A450 with Mouse Id3: Histidine, 0.043 A450 with Human Id3: Histidine, 0.047 A450 in assay [5] and 0.045 A450 with Mouse Id1: Histidine [6].

B4: rabbit monoclonal anti-mouse/human Id3, clone #BCH-4/#17-3 (antibody, V domains shown)
VH: QSVEESGGRLVTPGTPLTLTCTASGFSLSNVYIHWVRQAPGKGLEWIGYISDGDTARYATWAKGRFTISKTSSTTVNLKMTSLTTEDTATYFCARQGFNIWGPGTLVTVSL
VL: AVLTQTPSPVSAAVGGTVSISCQSSQSVWNNNWLSWFQQKPGQPPKLLIYETSKLESGVPSRFKGSGSGTQFTLTISDVQCDDAATYYCLGGYWTTSDNNVFGGGTEVVVK
notes: Rabbit IgG from a rabbit hybridoma; also called m/h Id3 MoAb 17-3; BCH-3/#17-3
B4: the A450 in the assay with Human Id1: Histidine [1] came to 0.048 A450; with Mouse Id1: Histidine [2], 0.051 A450; in [3], 0.046 A450; in the assay with Human Id1: Histidine [4], 0.045 A450; with Mouse Id2: Histidine, 0.048 A450; in the assay with Human Id2: Histidine, 0.043 A450. Also, the A450 with Mouse Id3: Histidine amounted to 0.047 A450; with Human Id3: Histidine, 0.045 A450; in [5], 0.046 A450; with Mouse Id1: Histidine [6] it was 0.045 A450.

B5: rabbit monoclonal anti-mouse/human Id3, clone #BCH-4/#42-1 (antibody, V domains shown)
VH: QSVEESGGRLVTPGTPLTLTCTASGFSLSSYYIHWVRQAPGKALEWIGYISDGGTTYYASWAKGRFTISKTSSTTVDLKMTSLTTEDTATYFCARQGFNIWGPGTLVTVSL
VL: AVLTQTPSPVSAAVGGTVTISCQSSQSVYNNNWLSWFQQKSGQPPKLLIYETSKLESGVPSRFKGSGSGTQFTLTIIDVQCDDAATYYCLGGYWSTSDNNIFGGGTEVVVK
notes: Rabbit IgG from a rabbit hybridoma; also called m/h Id3 MoAb 42-1
With B5, the A450 with Human Id1: Histidine [1] came out at 0.047 A450; with Mouse Id1: Histidine [2] it was 0.049 A450; in assay [3] it was 0.049 A450; with Human Id1: Histidine [4], 0.043 A450; in the assay with Mouse Id2: Histidine it was 0.048 A450; with Human Id2: Histidine, 0.044 A450. Further, the A450 was 0.047 A450 with Mouse Id3: Histidine, 0.044 A450 with Human Id3: Histidine, 0.048 A450 in [5] and 0.052 A450 with Mouse Id1: Histidine [6].

Values taken from patent US20070178531A1 (BIOCHECK, published 2007).
